Source: article PMC8287928
pKd: −log10 of the molar value.

Target: SARS-CoV-2 spike pseudotyped lentivirus (PV) (SARS-CoV-2 (Wuhan-Hu-1)) (UniProt P0DTC2)
Assay: dot blot (filter binding)

Sequence | pKd
TTACGTCAAGGTGTCACTCCACGGGTTTGGCGTCGGGCCTGGCGGGGGGATAGTGCGGTGGAAGCATCTCTTTGGCGTG [MSA5] | 10.93
TTACGTCAAGGTGTCACTCCCACTTTCCGGTTAATTTATGCTCTACCCGTCCACCTACCGGAAGCATCTCTTTGGCGTG [MSA1] | 10.64
